Test results from patent US20130052132A1, “Method for Producing Radioactively Labeled Polypeptide” (priority 2011, published 2013).
* marks the point of attachment. Benzoyl(3-I) = O=C(c1cccc(I)c1)*

Columns and labels:
[1] = design: species or system ddY mice; settings: mouse
Method: After 5 minutes, 15 minutes, 30 minutes, 60 minutes, and 120 minutes from the administration, organs were dissected out of the mice (n=5). The weight and radioactivity of each organ were determined, and an accumulation amount (% dose/g) of the polypeptide of Example 1 was calculated from the radioactivity per unit weight. FIG. 1 is a graph showing, by way of example, how the accumulation of the polypeptide of Example 1 in each organ changed over time. Table 2 provides the ratio of pancreas/liver (accumulation amount in pancreas/accumulation amount in liver), the ratio of pancreas/kidney (accumulation amount in pancreas/accumulation amount in kidney), and the ratio of pancreas/blood (accumulation amount in pancreas/accumulation amount in blood) based on the accumulation amount of the polypeptide of Example 1 in each organ. The polypeptide of Example 2 (0.51 μCi) was administered to unanesthetized 6-week-old ddY mice (male, weight: 30 g) by intravenous injection (through the tail vein). After 5 minutes, 15 minutes, 30 minutes, 60 minutes, and 120 minutes from the administration, organs were dissected out of the mice (n=5). The weight and radioactivity of each organ were determined, and an accumulation amount (% dose/g) of the polypeptide of Example 2 was calculated from the radioactivity per unit weight. FIG. 3 is a graph showing, by way of example, how the accumulation of the polypeptide of Example 2 in each organ changed over time. Table 4 provides the ratio of pancreas/liver, the ratio of pancreas/kidney, and the ratio of pancreas/blood based on the accumulation amount of the polypeptide of Example 2 in each organ. A biodistribution experiment was performed by following the same procedure as in Example 1 except that the polypeptide of Example 4 (0.61 μCi) was used in place of the polypeptide of Example 1. FIG. 6 is a graph showing, by way of example, how the accumulation of the polypeptide of Example 4 in each organ changed over time. […]

[2] = target: T1, GLP-1R of the pancreatic β-cells (Mus musculus, UniProt O35659); assay: Two-dimensional imaging analysis of pancreas sections (fluorescence and autoradiography); format: in vivo, MIP-GFP mouse; settings: MIP-GFP mice
T1 construct: the pancreas was dissected out of the mouse; from tissue; host or cells: pancreas sections of MIP-GFP mice after intravenous dosing
T1 sequence (O35659 22-463): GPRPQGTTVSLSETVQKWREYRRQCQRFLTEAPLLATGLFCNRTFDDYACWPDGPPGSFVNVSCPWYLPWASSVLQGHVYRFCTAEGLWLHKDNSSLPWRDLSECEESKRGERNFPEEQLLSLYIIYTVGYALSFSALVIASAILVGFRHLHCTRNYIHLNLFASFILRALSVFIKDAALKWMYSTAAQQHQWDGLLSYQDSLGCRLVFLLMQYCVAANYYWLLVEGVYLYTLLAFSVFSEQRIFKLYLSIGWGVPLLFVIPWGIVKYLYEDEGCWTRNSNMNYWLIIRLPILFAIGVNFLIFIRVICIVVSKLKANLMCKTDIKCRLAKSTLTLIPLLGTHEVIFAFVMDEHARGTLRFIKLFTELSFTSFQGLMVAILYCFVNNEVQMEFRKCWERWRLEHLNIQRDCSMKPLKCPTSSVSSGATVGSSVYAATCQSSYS
Method: The polypeptide of Example 1 (5 μCi/100 μl) was administered to an unanesthetized MIP-GFP mouse (male, weight: 20 g) by intravenous injection, and after 30 minutes and 60 minutes from the administration, the pancreas was dissected out of the mouse (n=1). Sections were cut out of the dissected pancreas, and each section was placed on a slide glass, covered with a cover glass. The fluorescence and radioactivity (autoradiography) of each section were determined using an image analyzer (trade name: Typhoon 9410, manufactured by GE Health Care Inc.) (exposure time: 18 hours). The exemplary results are shown in lanes 1, 4 and 5 of FIG. 2. […] After 30 minutes from the preliminary administration, the polypeptide of Example 1 (5 μCi/100 μl) was administered to the mice by intravenous injection, and after 30 minutes and 60 minutes from the administration of the polypeptide, the pancreases were dissected out of the mice (n=2). Sections were cut out of the dissected pancreases, and the fluorescence and radioactivity of each section were determined in the same manner as above. […] FIG. 4 illustrates exemplary results of the imaging analysis of pancreas sections of MIP-GFP mice to which the polypeptide of Example 2 was administered. The images on the upper row show a fluorescence signal and those on the lower row show a radioactivity signal of the polypeptide represented by the formula (20). […]

[3] = target: T2, GLP-1R (glucagon-like peptide-1 receptor) of mouse pancreatic islet cells (mouse, UniProt O35659 22-463); assay: displacement of [125I]Bolton-Hunter labeled exendin(9-39) from mouse pancreatic islet cells, filter separation, gamma counter
T2 construct: whole, on cells; also called GLP-1R of pancreatic beta-cells
T2 sequence: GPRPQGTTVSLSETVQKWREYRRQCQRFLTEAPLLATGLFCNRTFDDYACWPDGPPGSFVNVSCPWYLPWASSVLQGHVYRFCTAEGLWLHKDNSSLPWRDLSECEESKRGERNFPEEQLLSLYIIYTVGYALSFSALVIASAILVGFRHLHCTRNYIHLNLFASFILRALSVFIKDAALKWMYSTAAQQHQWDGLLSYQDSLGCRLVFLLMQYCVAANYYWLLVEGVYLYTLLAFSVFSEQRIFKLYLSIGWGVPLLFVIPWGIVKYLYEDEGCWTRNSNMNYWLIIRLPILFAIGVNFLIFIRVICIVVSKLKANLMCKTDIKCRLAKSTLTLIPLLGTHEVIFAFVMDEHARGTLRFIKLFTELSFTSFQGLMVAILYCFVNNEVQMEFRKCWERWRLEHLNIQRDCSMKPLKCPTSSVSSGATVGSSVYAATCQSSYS

For “Example 1 (DLSKQMEEEAVRLFIEWLRNGGPSSGAPPPS; A polypeptide produced in Production Example 1)”, the “deiodization metabolism in vivo” value [1] was “not subjected to deiodization metabolism in vivo”, the “accumulation in the pancreas” value ([1]; in vivo) was “exceeding 15 % dose/g” and the “ratio of pancreas/kidney in the accumulation amount” value ([1]; in vivo) was no less than 1. The “localization of the radioactivity signal in pancreas sections” value ([2]; 30 and 60 minutes after intravenous injection, compared with GFP signal) was “substantially consistent with that of the GFP signal” and the “radioactivity signal in pancreas sections after blocking the receptors” value ([2]; preliminary administration of cold probe non-labeled exendin(9-39) 50 μg 30 minutes before) was “hardly detected”.

B1: polypeptide represented by the formula (11) (peptide)
peptide: Ac-DLSK(Benzoyl(3-I))QMEEEAVRLFIEWLRNGGPSSGAPPPS-NH2
SMILES: CC[C@H](C)[C@H](NC(=O)[C@H](Cc1ccccc1)NC(=O)[C@H](CC(C)C)NC(=O)[C@H](CCCNC(=N)N)NC(=O)[C@@H](NC(=O)[C@H](C)NC(=O)[C@H](CCC(=O)O)NC(=O)[C@H](CCC(=O)O)NC(=O)[C@H](CCC(=O)O)NC(=O)[C@H](CCSC)NC(=O)[C@H](CCC(N)=O)NC(=O)[C@H](CCCCNC(=O)c1cccc(I)c1)NC(=O)[C@H](CO)NC(=O)[C@H](CC(C)C)NC(=O)[C@H](CC(=O)O)NC(C)=O)C(C)C)C(=O)N[C@@H](CCC(=O)O)C(=O)N[C@@H](Cc1c[nH]c2ccccc12)C(=O)N[C@@H](CC(C)C)C(=O)N[C@@H](CCCNC(=N)N)C(=O)N[C@@H](CC(N)=O)C(=O)NCC(=O)NCC(=O)N1CCC[C@H]1C(=O)N[C@@H](CO)C(=O)N[C@@H](CO)C(=O)NCC(=O)N[C@@H](C)C(=O)N1CCC[C@H]1C(=O)N1CCC[C@H]1C(=O)N1CCC[C@H]1C(=O)N[C@@H](CO)C(N)=O
notes: Non-radioactive exendin(9-39) derivative with Arg in place of Lys at position 19; Formula (11) itself is a drawing; also called cold probe
B1 gave an IC50 [3] of 32.1 nM.
